These results are taken from the DeepSol protein solubility set.

The data set in a line: soluble on expression in E. coli; label from the status in PepcDB or PDB records.
For the sequence “MGHPRSIRSFVLRQSHMTAAQQRAIDTLWDSFGIDYQATPADLDARFGSSRPKILEIGFGMGTATAEIARRLPETDFLAIDVHGPGVGNLLKLIDENHLENIRVMRHDAVEVVENMLQDGSLDGIHIFFPDPWHKKRHHKRRLIQAPFIAKLLPKLKTGGYIHLATDWEEYAQQMLEVLSSFDSLQNTAADYAPTPDYRPETKFEARGKRLGHGVWDLVFKRIGLEHHHHHH”, the “soluble on expression in E. coli” value is listed as “soluble”.

Take “MSLSNLINGKIPNQAIQTLKIVKDLFGSSIVGVYLFGSAVNGGLRINSDVDVLVVVNHSLPQLTRKKLTERLMTISGKIGNTDSVRPLEVTVINRSEVVPWQYPPKREFIYGEWLRGEFENGQIQEPSYDPDLAIVLAQARKNSISLFGPDSSSILVSVPLTDIRRAIKDSLPELIEGIKGDERNVILTLARMWQTVTTGEITSKDVAAEWAIPLLPKEHVTLLDIARKGYRGECDDKWEGLYSKVKALVKYMKNSIETSLNEGHHHHHH”: the “soluble on expression in E. coli” value is “soluble”. On to “GPGMASSPRPKMDAILTEAIKACFQKSGASVVAIRKYIIHKYPSLELERRGYLLKQALKRELNRGVIKQVKGKGASGSFVVVQKSRKT”, for which the “soluble on expression in E. coli” value is reported as “soluble”. To “MFSLLRKSLKSPAPKKVVPSQRTVSVAGRQVPITVRENPRATRITLRIEPGGRALKLTIPMGLHHRQVDDFLERHQGWLEGKLLKFSPDDGLRPGATIDIRGISHRIEHTGSLRGLTHIAKDADGVAVLKVSGAPEHLRRRIATFLKKEAKADLERLVAIHGRAAGRPVRSISMKDTRSRWGSCSHDGNLSFSWRIVMAPDRVIDYLAAHEVAHLSEMNHGPKFWALCEKLCPHTSEAKDWLKRHGSKLHAIDFDLEHHHHHH” belongs “not soluble”; to “MGSDKIHHHHHHMQVEQRTLNTAAHPFQITAYWLDQISDFETAVDYPIMIICPGGGFTYHSGREEAPIATRMMAAGMHTVVLNYQLIVGDQSVYPWALQQLGATIDWITTQASAHHVDCQRIILAGFSAGGHVVATYNGVATQPELRTRYHLDHYQGQHAAIILGYPVIDLTAGFPTTSAARNQITTDARLWAAQRLVTPASKPAFVWQTATDESVPPINSLKYVQAMLQHQVATAYHLFGSGIHGLALANHVTQKPGKDKYLNDQAAIWPQLALRWLQEQGLLAGNY”, “not soluble”. As to “HHHHHHSSGLVPRGSHMSCEELEIVWNNIKAEARTLADCEPMLASFYHATLLKHENLGSALSYMLANKLSSPIMPAIAIREVVEEAYAADPEMIASAACDIQAVRTRDPAVDKYSTPLLYLKGFHALQAYRIGHWLWNQGRRALAIFLQNQVSVTFQVDIHPAAKIGRGIMLDHATGIVVGETAVIENDVSILQSVTLGGTGKSGGDRHPKIREGVMIGAGAKILGNIEVGRGAKIGAGSVVLQPVPPHTTAAGVPARIVGKPDSDKPSMDMDQHFNGINHTFEYGDGI”, the “soluble on expression in E. coli” value is “soluble”. On to “MGHDTIAKFLLTSGSTGNPKAVINTQRMICANQVMIREAMAFLKDEPPVIVDWLPWNHTFGGNHNIGLTLFNGGSMYIDDGKPTPAGIASTIRNLREIAPTVYFNVPKGYESLLPVLREDQQLRKLFFSRLHAMFFSGASLAAHVWNGLDEVAVAETGARVPMLTGLGATETAPFFMSVTPQTSRSGHVGLPVPGLEHHHHHH”, for which the “soluble on expression in E. coli” value is reported as “not soluble”. With “MNRLMTLTGAGLALAFSVSIAQAQVVVSSKIDTEGGVLGNIILAVLNQNKIETTDRIQLGATPVVRKAITAGEIDIYPEYTGNAAFFFSKADDPLWKDAAKGYEEAKTLDYDANKIVWLAPSPANNTWAIALRKDVADKNNLKTLSDFGKYVAGGGTVVLAASSEFVNSAAALPAFQTTYGFTMKPDQLITLSGGDTAATIAAAANQTNNANAAMVYGTDGGIAPSGLVVLEDDKHVQPVYQPAPIIREEVLKKHPNIEELLKPVFEKLDLATLQDLNARVQVGGEQAKTVAMDFLTKNGFAK”, the “soluble on expression in E. coli” value is reported as “not soluble”. With “LRPVLPTQSAHDPPAVHLSNGPGQEPIAVMTFDLTKITKTSSSFEVRTWDPEGVIFYGDTNPKDDWFMLGLRDGRPEIQLHNHWAQLTVGAGPRLDDGRWHQVEVKMEGDSVLLEVDGEEVLRLRQVSGPLTSKRHPIMRIALGGLLFPASNLRLPLVPALDGCLRRDSWLDKQAEISASAPTSLRSCDVESNPGIFLPPGTQAE”, the “soluble on expression in E. coli” value was “soluble”. On to “HGSMEVPVSRAYGCFQEGPEAPISSACREAKRVGGAQAMYDWNAINQTPAGDNHQALVPDGALCGGGKAEFKGFNLARSDWRATSIVPDAKGDYEFVFQATAPHATKYFRLYVTRDGWNPSTPLKWSDLTLFGAYNGNPPLDVGNRYRMTMRLPAGKTGRHIIYSVWKRSDSEEAFYACSDVSFGH”, for which the “soluble on expression in E. coli” value is “not soluble”. As for “KEPSHNSFTFNESLSFTGFSKLDNNTNFNASIVSDDNRAGAMVFGQARYRNHWDANNDGYSELGKIDARSLGAHSYLRLSDYSKLTGEFHTISEFRRGGDRIDLPPHVVGVAEQTDHSVFSGNLKYDLFSSNYKHHFQAYTSGQIVNRKSYYGGIGEIDVNGHPGGTEGYPIPQDQYGNNYGVTKGKTYMGGIQYSYDLDKFLLMPSQLLFGAEYTRDELNDVMPILSWQTGEDANGNTIPLYPELDQNINNYSLFGQNEWKNDRWSILVGARLDKHSEVKDMILSPRTTLRFNVNPDINLRATYAKGFRAPQVFDEDLHVGVVGGEAQKVFNDPNLKPEISHAFSLSADMYHRFGNVQTNFLVEGFYTRLLDVFTNEEQPDQHDGIKRYTRINGSGAKVFGLNLEGKVAYKSFQLQAGLTLASNKYDEAQEWGLNTVKDTNGAFVTEANANGQQEYKNESMTDTQITRTPSVYGYFTLAYNPAHSWNIALTGAYTGQMYVPHAIEYGVKSAELDIMQNNPEITDETGKAPRIDELKKTPAFFDLGLKVGYDFHVFQATEVQLYVGMNNIFNSFQKDFDRGAARDSGYIYGPTQPRTGYMGLVVKF”, the “soluble on expression in E. coli” value is recorded as “not soluble”. To “MNDVDVLVVGAGALGLACAARLAEAGHGVLVAERERLVGSHTSSRNSEVIHAGLYYPPGSLKADLCLEGRERLYAWCARHGVGHRRIGKLLVAVEENERERLQALAANARACGVDDLMPLDGTTLRALEPQVRGVAALLSPSTGIIDSHAYLQSLQAVAERHGAQLALDTRVDRLERHAGGWRAEGQSVGEAFRLRAGWVVNAGGLFAQALAQRTEGLDPRLVPALHLCQGRYFSYSGRSPFRHLVYPMPEARTAGLGIHATLDLGGQLRFGPDVNYVDNLDYRVDESLRPAFAQVISRYFPGIDPRRLAAGYAGIRPKLGGPGEPAADFIIQTPAEHGLPGLVNLFGIESPGLTASLALAERVARALLEHHHHHH” belongs “not soluble”. For the sequence “MHEYELNQDLLAENKRLAEKNREALRESGTVAVNIMGAIGSGKTLLIERTIERIGNEVKIGAMLGDVVSKADYERVRRFGIKAEAISTGKECHLDAHMIYHRLKKFSDCDLLLIENVGNLICPVDFDLGENYRVVMVSVTEGDDVVEKHPEIFRVADLIVINKVALAEAVGADVEKMKADAKLINPRAKIIEMDLKTGKGFEEWIDFLRGILNVHSDSGQN”, the “soluble on expression in E. coli” value is on record as “not soluble”. Consider “MSEPLLRGLAAGDPPSATGPVTGSADKVADVLIVGGGLVGGTLACALAEKGVSVVVIDGEDPEALLAAGYDGRCSAIALACQRLLDTIGLWDLLGGESQPILDIRVVDGGSPLFLHYAQAEAQGPMGYMVENRLLRQAILTRLGRLPAATLLAPARMTALRRDLDGVSATLSDGQTVRARLVVGADGRRSQVRESAGIGIRTLGYGQTAIVLTVEHERSHRGCAVEHFLPAGPFAILPMPGNRSSLVWTERSDLVPGLLALPAEHFQAELERRFGDHLGWVRPVGPRFSYRLTLQAANRYVDHRLALVGDAAHGMHPVAGQGMNYGLRDVAVLAERLVAAQRLGLDPGAPALLAEYEALRRPDNLLMLAITDALVRLFSNDIAPVALARRLGIGAVERMGPLKRLFMRHAMGTLKLGPEPPRLMRGVPLLEHHHHHH”, for which the “soluble on expression in E. coli” value is given as “soluble”.

For the sequence “MISAAPYRDRVVHHALYNIIVPIFERTFISDSYANRVGFGSHRALRRFTQFSRSSHYVFQADIRKYFPSIDHKILKHLIYRKIKCPDTLWLINTIIDNSNFQEPVINYFPGDNLLAPLERRCGLPIGNLTSQFFANVYLNNFDHFVKEQLQAFKYIRYVDDFALFSDDKAFLETARVIIEEYLTSLRLKIHPIKSQLFETKHGANFVGFRILPNQIRVRSDNLRLGRKRLRQMLRDYDEGKIDAQHLTQSTQSWVAHLKHGDTWQLRQRIFSSSIFDLAMLILEHHHHHH”, the “soluble on expression in E. coli” value is listed as “soluble”. To “MTRPPAGTPYWDAAELPTQPQLHGVVTADVAVVGAGLAGLSCAYHLAERAPGLDIAVVDAEHPAAGASGRGTGLLGPRAGPAVDRAVRRFGPQTARRMHRASERAVRDVLALCARLDVPCGLRTGEQLVATRSSAGLAALARQARACRELGLDVPVLTPAGIRDRVGVPYRAALLHRPAATLDPAALTCALARACADKGVRFYGRSPLLALRPGDLVGPELVLPHGRLYAGQAVLAVNSAAQALDLPVGTVLPLEVYAVATEPLSAPAYEALGGRAGHAVVDAVPMAPYFRLLPDRGLVAGGGTATVPAGVGAPRLQAVRERAWSWLERWLRALHPDLARVRVTHRWSGRIGMTGDDLPVVGPVPGYDDVWYIGGCCGHGLALSVAHGAHVAAALLGEPEPGEPLPWHRSRAPRLPARGPAGPLLRAYVDAMGRIARHTCLEHHHHHH” belongs “not soluble”; to “MATLDHLLEELFEACSVFDKFPVSFNRTLIDELVDCLDFEEPTLTVIRKFVRNLDFEGKLAPIRMVIRLLDAAIKNNKFRNEDDLLLEFIQKSEAILSRPRNRLLLQDLFNFYTNPVVFAVREPESWLVVIRWVMNEFADEYLSCFHIDLFVKFICQIPSAAEARRLNIISEAISPDLVGSFSARIIYNYAQDLTIDECNTFVNNFRLSSLGYRWPAIRVLLKMRELHPSLVIPLAPASWTEENRRVDVICRLLFPMDFDTLKMMDVQLENVEALVDSVLDSPVDIDLKEKMLDHMNERQFEKYFDELLSFAKIESNDVNIHVTSALRSLPQHATRQKVAQLFEALGDKILDLALILNLSLAYGSNAFDFPEFEKFKDRYSKLVSDAIKAPVGESNAERIITVLECMKLFPCFLPVKADETAVYLDFSNSLTLNEKGAREVPVKTTGHEKMHVTVLLTARADGYKCRPYVLLPRTRPDKEIAARFKNSLQLSWCNRTFFNDEVTEDYLNTIIGPPFFGKRLLAWDAFRCHISDATKRVLKNLKVDTAVVPGGCTKFVQAPDVYWNSPFKASIRRSYEDWMVHGQKSFTKSNNMRPPSMLQYLEWIENAWNDLPKDLILKSFKGCALTIATDGSEDNQIHCFAPNGSIPSGLDLLNSTRIENSLVDLVQDIGIDESQEEGNESDNSIISVG”, “not soluble”. Consider “MPGVTVKEIDQHVLTKNMAAFLKKSGKIFVPEQAVYMKTGKFKETAPTDDDWFYTRCASIMRHLYLRSPAGVGAFTKVYSGRKRNGVRPSKHCRSSDGCIRKALQALEAANMVERHPDGGRKLTPQGQRNLDRIANKIVAKQRERSAPVSMIITTLEHHHHHH”, for which the “soluble on expression in E. coli” value is on record as “soluble”. As to “MIREFSEDDIEPLATGAWILGTGGGGNPYISTLNLRRLYAEGRRVKVMDPMALADDDMVAVVSKMGAPLVGQERLGDPAHLARAVEVMEDYLGKPFRAIMSVEIGGSNALSSFLAAAVLDRPVVNADAMGRAYPEAQMTSFAIGNLPMFPLSLVDVRDNEVIVTRAASWKWMERISRKVCTEVGSTAATCKAPRTGKEVKEWGIHYTVTKATELGRAVMEARARHDDPVQAVLDHEGGKQLFRGKVVDVARETTGGFLRGSTTIEGIDADRGSRMELAFQNEWAVAFRDGQPVAMTPDLLCLLDTVSGGAIGTESVRYGQRVTVVALPAPELLTTPAGIDAVGPRAFGYDIDFRSVFPLEHHHHHH”, the “soluble on expression in E. coli” value was “soluble”.
